Values of other authors as cited in paper PMC3197216.
Each block holds one substance with its values, some of them ahead of it.

Key:
[1] = target: GluA3 ATD (Rattus norvegicus) (UniProt P19492)
[2] = target: KA2 ATD (Rattus norvegicus) (UniProt Q63273)
[3] = target: NR2 ATD (Rattus norvegicus) (UniProt Q00960)
UniProt Q00960, sequence (Q00960 31-394): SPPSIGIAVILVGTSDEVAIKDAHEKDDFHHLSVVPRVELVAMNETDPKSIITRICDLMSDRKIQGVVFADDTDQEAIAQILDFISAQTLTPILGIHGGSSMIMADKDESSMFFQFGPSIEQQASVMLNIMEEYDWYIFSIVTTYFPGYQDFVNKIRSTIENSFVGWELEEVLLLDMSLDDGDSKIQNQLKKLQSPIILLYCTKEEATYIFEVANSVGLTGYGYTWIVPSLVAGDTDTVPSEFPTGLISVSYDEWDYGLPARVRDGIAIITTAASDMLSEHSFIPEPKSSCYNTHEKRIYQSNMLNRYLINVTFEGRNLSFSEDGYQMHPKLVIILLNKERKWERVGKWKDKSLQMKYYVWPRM

UniProt Q63273, sequence (Q63273 20-402): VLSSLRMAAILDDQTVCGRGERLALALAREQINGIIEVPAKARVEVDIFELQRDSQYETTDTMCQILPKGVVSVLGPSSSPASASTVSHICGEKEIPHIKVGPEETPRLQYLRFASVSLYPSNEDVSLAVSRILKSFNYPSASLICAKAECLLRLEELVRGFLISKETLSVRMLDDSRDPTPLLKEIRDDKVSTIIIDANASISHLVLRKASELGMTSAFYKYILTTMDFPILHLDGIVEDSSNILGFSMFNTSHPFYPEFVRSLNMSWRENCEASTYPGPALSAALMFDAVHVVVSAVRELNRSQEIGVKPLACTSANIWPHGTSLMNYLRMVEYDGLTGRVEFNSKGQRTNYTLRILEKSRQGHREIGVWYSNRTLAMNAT

Kd [1]: 1.2 µM
Substance: GluA3 ATD (from UniProt P19492)

Kd [2]: 0.011 µM
Substance: GluR6 ATD (from UniProt P42260)

Kd [3]: 0.7 µM
Substance: NR1 ATD (from UniProt P35439)
